According to patent USRE48267E1, “Variants of C-type natriuretic peptide” (priority 2009, dated 2020):
Where a SMILES comes first, the peptide text is derived from it. Bridges are numbered along the chain shown (N, C = ends). Where no end group is shown, it is not given here. [ ]: non-standard residue; d: D form. PEO12 = PEO12, 0.6 kDa, monodispersed; PEO24 = PEO24, 1.2 kDa, monodispersed; PEG2K = PEG2K (polydispersed); Tle = CC(C)(C)[C@H](N)C(=O)O; PEG1K = polydispersed PEG1K

T1: NPR-B (natriuretic peptide receptor B), murine, expressed endogenously on NIH3T3 cells (murine, UniProt Q6VVW5 17-1047)
T1 sequence (looked up): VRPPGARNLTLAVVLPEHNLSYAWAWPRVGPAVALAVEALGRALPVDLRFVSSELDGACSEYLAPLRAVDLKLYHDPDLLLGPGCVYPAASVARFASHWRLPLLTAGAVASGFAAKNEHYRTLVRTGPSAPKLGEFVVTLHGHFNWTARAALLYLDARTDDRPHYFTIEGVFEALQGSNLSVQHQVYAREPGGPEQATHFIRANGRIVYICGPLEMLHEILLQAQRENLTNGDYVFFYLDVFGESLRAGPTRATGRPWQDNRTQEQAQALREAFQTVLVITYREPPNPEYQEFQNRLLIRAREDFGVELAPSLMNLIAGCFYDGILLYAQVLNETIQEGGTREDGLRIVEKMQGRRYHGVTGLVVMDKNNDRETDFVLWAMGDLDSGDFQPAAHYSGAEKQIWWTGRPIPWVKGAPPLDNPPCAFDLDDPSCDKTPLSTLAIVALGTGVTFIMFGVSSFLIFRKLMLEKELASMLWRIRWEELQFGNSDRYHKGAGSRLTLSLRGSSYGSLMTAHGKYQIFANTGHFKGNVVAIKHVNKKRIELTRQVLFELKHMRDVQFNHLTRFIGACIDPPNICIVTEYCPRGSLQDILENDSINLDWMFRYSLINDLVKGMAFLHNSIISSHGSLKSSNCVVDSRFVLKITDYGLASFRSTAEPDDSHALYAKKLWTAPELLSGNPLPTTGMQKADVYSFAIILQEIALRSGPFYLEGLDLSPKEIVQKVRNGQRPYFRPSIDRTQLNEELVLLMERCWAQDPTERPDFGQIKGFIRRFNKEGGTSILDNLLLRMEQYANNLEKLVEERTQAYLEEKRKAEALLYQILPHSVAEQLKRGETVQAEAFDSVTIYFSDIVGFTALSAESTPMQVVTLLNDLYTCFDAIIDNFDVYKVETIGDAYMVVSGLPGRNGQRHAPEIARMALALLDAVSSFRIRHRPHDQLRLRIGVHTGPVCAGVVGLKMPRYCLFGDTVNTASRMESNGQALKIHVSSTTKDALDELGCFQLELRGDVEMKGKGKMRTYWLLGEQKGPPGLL


Biological target: Recombinant human NEP (Homo sapiens, UniProt P08473)
Sequence (P08473 whole entry): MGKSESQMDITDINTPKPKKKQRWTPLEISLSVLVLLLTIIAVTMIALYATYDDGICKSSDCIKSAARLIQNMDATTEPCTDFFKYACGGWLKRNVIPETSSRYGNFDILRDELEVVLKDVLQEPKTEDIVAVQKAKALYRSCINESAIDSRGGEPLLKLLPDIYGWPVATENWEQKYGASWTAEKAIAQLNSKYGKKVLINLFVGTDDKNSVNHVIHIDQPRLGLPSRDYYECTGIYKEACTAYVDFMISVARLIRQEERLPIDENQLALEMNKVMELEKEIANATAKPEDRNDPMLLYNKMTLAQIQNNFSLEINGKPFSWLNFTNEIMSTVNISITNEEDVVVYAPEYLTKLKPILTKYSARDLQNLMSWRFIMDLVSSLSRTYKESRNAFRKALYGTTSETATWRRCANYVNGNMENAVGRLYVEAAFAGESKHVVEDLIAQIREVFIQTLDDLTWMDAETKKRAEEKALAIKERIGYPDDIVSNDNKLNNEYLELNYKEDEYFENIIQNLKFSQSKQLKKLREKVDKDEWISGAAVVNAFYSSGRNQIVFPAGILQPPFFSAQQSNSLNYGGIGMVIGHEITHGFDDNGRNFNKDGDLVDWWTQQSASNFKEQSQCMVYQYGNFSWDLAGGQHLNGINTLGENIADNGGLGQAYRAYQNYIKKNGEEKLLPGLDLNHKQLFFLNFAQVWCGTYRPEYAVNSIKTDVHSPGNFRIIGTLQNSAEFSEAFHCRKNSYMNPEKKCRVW
Test: in vitro NEP cleavage assay (disappearance of non-cleaved CNP variant)
Conditions: not given
Method: To determine the effects of amino acid substitutions, amino acid extensions, backbone modifications, side chain modifications and PEGylation on the susceptibility of CNP variants to neutral endopeptidase (NEP) cleavage, peptide cleavage assays were carried out using an in vitro assay that monitored disappearance of the non-cleaved CNP variant.
Recombinant human NEP (1 ug/mL final concentration) was added to 100 uM CNP variant diluted in 0.1 M Tris, pH 7. The reaction mixture was incubated at 37° C. for various periods of time, and the reaction was quenched with EDTA (10 mM final) followed by heat denaturation. The reaction mixture was reduced and then the reaction products were analyzed using HPLC and mass spectroscopy. The half-life of the CNP variant was calculated based on the disappearance of intact CNP variant over time.

`CC[C@H](C)[C@@H]1NC(=O)[C@H](CCCNC(=N)N)NC(=O)[C@H](CC(=O)O)NC(=O)[C@H](CC(C)C)NC(=O)[C@H](CCCCN)NC(=O)[C@H](CC(C)C)NC(=O)CNC(=O)[C@H](Cc2ccccc2)NC(=O)[C@@H](NC(=O)CNC(=O)[C@H](CCCNC(=N)N)NC(=O)[C@H](CO)NC(=O)[C@H](CC(C)C)NC(=O)CNC(=O)[C@H](CCCNC(=N)N)NC(=O)[C@H](CCCNC(=N)N)NC(=O)[C@H](CC(N)=O)NC(=O)[C@H](C)NC(=O)CN)CSSC[C@@H](C(=O)O)NC(=O)CNC(=O)[C@H](CC(C)C)NC(=O)CNC(=O)[C@H](CO)NC(=O)[C@H](CCSC)NC(=O)[C@H](CO)NC(=O)CNC1=O` [Analog AY] (H-GANRRGLSRGCFGLKLDRIGSMSGLGC-OH; disulfide 11-27) was tested, and the “resistance to NEP cleavage (in words)” value was “same lability to NEP hydrolysis as CNP22”.
For `CC[C@H](C)[C@@H]1NC(=O)[C@H](CCCNC(=N)N)NC(=O)[C@H](CC(=O)O)NC(=O)[C@H](CC(C)C)NC(=O)[C@H](CCCCN)NC(=O)[C@H](CC(C)C)NC(=O)CNC(=O)[C@H](Cc2ccccc2)NC(=O)[C@@H](NC(=O)CNC(=O)[C@H](CCCNC(=N)N)NC(=O)[C@H](CO)NC(=O)[C@H](CC(C)C)NC(=O)CNC(=O)[C@@H](N)CCCNC(=N)N)CSSC[C@@H](C(=O)O)NC(=O)CNC(=O)[C@H](CC(C)C)NC(=O)CNC(=O)[C@H](CO)NC(=O)[C@H](CCSC)NC(=O)[C@H](CO)NC(=O)CNC1=O` [Analog AZ] (H-RGLSRGCFGLKLDRIGSMSGLGC-OH; disulfide 7-23), the “resistance to NEP cleavage (in words)” value was “most resistant to NEP degradation”.
In the case of “DLRVDTKSRAAWARLLQEHPNARKYKGANKKGLSKGCFGLKLDRIGSMSGLGC (disulfide 37-53) [Analog BM, reference compound]”, the “resistance to NEP cleavage (in words)” value is reported as “resistant to NEP degradation”.
“PEG2K-CNP22(K4G): CNP22 having a K4G substitution, N-terminal PEGylated with PEG2K (PEG2K-GLSGGCFGLKLDRIGSMSGLGC; not fully specified (bridges); ends and bridges not checked; UniProt P23582 105-126, looked up, variant K4G)” was tested, and the “resistance to NEP cleavage (in words)” value was “only slightly more resistant to NEP cleavage than CNP22”.
“PEG5K-CNP22: CNP22 conjugated at the N-terminus to polydispersed PEG5K” was tested, and the “resistance to NEP cleavage (in words)” value was “resistant to NEP degradation over the assay period of 160 minutes”.

With `CC[C@H](C)[C@@H]1NC(=O)[C@H](CCCNC(=N)N)NC(=O)[C@H](CC(=O)O)NC(=O)[C@H](CC(C)C)NC(=O)[C@H](CCCCN)NC(=O)[C@H](CC(C)C)NC(=O)[C@H](C(C)(C)C)NC(=O)[C@H](Cc2ccccc2)NC(=O)[C@@H](NC(=O)CNC(=O)[C@H](CCCCN)NC(=O)[C@H](CO)NC(=O)[C@H](CC(C)C)NC(=O)CN)CSSC[C@@H](C(=O)O)NC(=O)CNC(=O)[C@H](CC(C)C)NC(=O)CNC(=O)[C@H](CO)NC(=O)[C@H](CCSC)NC(=O)[C@H](CO)NC(=O)CNC1=O` [Analog F] (H-GLSKGCF[Tle]LKLDRIGSMSGLGC-OH; disulfide 6-22) the “resistance to cleavage at the Cys6-Phe7 bond relative to wtCNP22” value was “resistance or improved resistance”.

Same assay, conditions: pH 7

For “PEG2K-CNP22: CNP22 conjugated at the N-terminus to polydispersed PEG2K”, the “NEP Cleavage (t1/2, min)” value was >>160 min.
For “PEG1K-CNP22: CNP22 conjugated at the N-terminus to polydispersed PEG1K”, the “NEP Cleavage (t1/2, min)” value was over 160 min.
With “PEG20K-CNP22: CNP22 conjugated at the N-terminus to polydispersed PEG20K” the “NEP Cleavage (t1/2, min)” value was >>160 min.
For “PEG5K-CNP22: CNP22 conjugated at the N-terminus to polydispersed PEG5K”, the “NEP Cleavage (t1/2, min)” value was >>160 min.
With “PEG1K-GANRR-CNP22(K4R): GANRR-CNP22, K4R (SEQ ID NO: 36) conjugated at the N-terminus to PEG1K (PEG1K-GANRRGLSRGCFGLKLDRIGSMSGLGC; not fully specified (bridges); ends and bridges not checked)” the “NEP Cleavage (t1/2, min)” value was over 160 min.

Biological target: T1, NPR-B (natriuretic peptide receptor B), …
Test: cell-based or functional assay
Conditions: not given

Point of comparison: PEO24-ERGLSRGCFGLKLDRIGSMSGLGC (ends and bridges not checked) [PEO24-ER-CNP22, K4R], “cGMP response rel. to 1 uM CNP22; 10 nM peptide, NIH3T3 cells” value 6 rel. to 1 uM CNP22 (100). Against it:
- PEG2K-CFGLKLDRIGSMSGLGC (ends and bridges not checked) [PEG2K-CNP17] — lower, 5 rel. to 1 uM CNP22 (100)
- PEO24-GLSRGCFGLKLDRIGSMSGLGC (ends and bridges not checked) [PEO24-CNP22, K4R] — higher, 15 rel. to 1 uM CNP22 (100)
- PEO24-GANSSGLSRGCFGLKLDRIGSMSGLGC (ends and bridges not checked) [PEO24-GANSS-CNP22, K4R] — higher, 8 rel. to 1 uM CNP22 (100)
- PEO24-GANRRGLSRGCFGLKLDRIGSMSGLGC (ends and bridges not checked) [PEO24-GANRR-CNP22(K4R)] — higher, 28 rel. to 1 uM CNP22 (100)
- PEO12-ERGLSRGCFGLKLDRIGSMSGLGC (ends and bridges not checked) [PEO12-ER-CNP22, K4R] — higher, 20 rel. to 1 uM CNP22 (100)
- PEO12-RGLSRGCFGLKLDRIGSMSGLGC (ends and bridges not checked) [PEO12-R-CNP22, K4R] — higher, 23 rel. to 1 uM CNP22 (100)
- PEO12-GANQQGLSRGCFGLKLDRIGSMSGLGC (ends and bridges not checked) [PEO12-GANQQ-CNP22, K4R] — higher, 30 rel. to 1 uM CNP22 (100)
- PEO24-GANQQGLSRGCFGLKLDRIGSMSGLGC (ends and bridges not checked) [PEO24-GANQQ-CNP22, K4R] — higher, 16 rel. to 1 uM CNP22 (100)
- PEO12-GLSRGCFGLKLDRIGSMSGLGC (ends and bridges not checked) [PEO12-CNP22, K4R] — higher, 13 rel. to 1 uM CNP22 (100)
- PEO12-GANSSGLSRGCFGLKLDRIGSMSGLGC (ends and bridges not checked) [PEO12-GANSS-CNP22, K4R] — higher, 8 rel. to 1 uM CNP22 (100)
- PEO12-GANRRGLSRGCFGLKLDRIGSMSGLGC (ends and bridges not checked) [PEO12-GANRR-CNP22(K4R)] — higher, 40 rel. to 1 uM CNP22 (100)
- PEO24-RGLSRGCFGLKLDRIGSMSGLGC (ends and bridges not checked) [PEO24-R-CNP22, K4R] — higher, 15 rel. to 1 uM CNP22 (100)
- PEG1K-GANRRGLSRGCFGLKLDRIGSMSGLGC (ends and bridges not checked) [PEG1K-GANRR-CNP22(K4R)] — higher, 15 rel. to 1 uM CNP22 (100)
- PEG2K-GANRRGLSRGCFGLKLDRIGSMSGLGC (ends and bridges not checked) [PEG2K-GANRR-CNP22, K4R] — higher, 15 rel. to 1 uM CNP22 (100)

Point of comparison: PEG2K-GANRRGLSRGCFGLKLDRIGSMSGLGC (ends and bridges not checked) [PEG2K-GANRR-CNP22, K4R], “cGMP response rel. to 1 uM CNP22; 1 uM peptide, NIH3T3 cells” value 45 rel. to 1 uM CNP22 (100). Against it:
- PEG2K-CFGLKLDRIGSMSGLGC (ends and bridges not checked) [PEG2K-CNP17] — higher, 50 rel. to 1 uM CNP22 (100)
- PEO24-GLSRGCFGLKLDRIGSMSGLGC (ends and bridges not checked) [PEO24-CNP22, K4R] — higher, 56 rel. to 1 uM CNP22 (100)
- PEO24-ERGLSRGCFGLKLDRIGSMSGLGC (ends and bridges not checked) [PEO24-ER-CNP22, K4R] — higher, 60 rel. to 1 uM CNP22 (100)
- PEO24-GANSSGLSRGCFGLKLDRIGSMSGLGC (ends and bridges not checked) [PEO24-GANSS-CNP22, K4R] — higher, 46 rel. to 1 uM CNP22 (100)
- PEO24-GANRRGLSRGCFGLKLDRIGSMSGLGC (ends and bridges not checked) [PEO24-GANRR-CNP22(K4R)] — higher, 82 rel. to 1 uM CNP22 (100)
- PEO12-ERGLSRGCFGLKLDRIGSMSGLGC (ends and bridges not checked) [PEO12-ER-CNP22, K4R] — higher, 92 rel. to 1 uM CNP22 (100)
- PEO12-RGLSRGCFGLKLDRIGSMSGLGC (ends and bridges not checked) [PEO12-R-CNP22, K4R] — higher, 93 rel. to 1 uM CNP22 (100)
- PEO12-GANQQGLSRGCFGLKLDRIGSMSGLGC (ends and bridges not checked) [PEO12-GANQQ-CNP22, K4R] — higher, 78 rel. to 1 uM CNP22 (100)
- PEO24-GANQQGLSRGCFGLKLDRIGSMSGLGC (ends and bridges not checked) [PEO24-GANQQ-CNP22, K4R] — higher, 73 rel. to 1 uM CNP22 (100)
- PEO12-GLSRGCFGLKLDRIGSMSGLGC (ends and bridges not checked) [PEO12-CNP22, K4R] — lower, 44 rel. to 1 uM CNP22 (100)
- PEO12-GANSSGLSRGCFGLKLDRIGSMSGLGC (ends and bridges not checked) [PEO12-GANSS-CNP22, K4R] — higher, 52 rel. to 1 uM CNP22 (100)
- PEO12-GANRRGLSRGCFGLKLDRIGSMSGLGC (ends and bridges not checked) [PEO12-GANRR-CNP22(K4R)] — higher, 99 rel. to 1 uM CNP22 (100)
- PEO24-RGLSRGCFGLKLDRIGSMSGLGC (ends and bridges not checked) [PEO24-R-CNP22, K4R] — higher, 75 rel. to 1 uM CNP22 (100)
- PEG1K-GANRRGLSRGCFGLKLDRIGSMSGLGC (ends and bridges not checked) [PEG1K-GANRR-CNP22(K4R)] — higher, 56 rel. to 1 uM CNP22 (100)
